Consider one molecule from PMC4024747 (Nature Communications, 2014).

Assay [1] addresses T1, recombinant P. vivax SUB1 (Plasmodium vivax, PVX_097935 (Salvador …, UniProt E6Y8B9)).
T1 construct: also called PvSUB1
As to the kind of experiment: western blot. Conditions: both partners purified.

Assay [2] has as its target rPfSUB1cat, recombinant Plasmodium falciparum SUB1 core catalytic domain (38 kDa) (Plasmodium falciparum, UniProt Q8I0V0). Description: western blot. Conditions: both partners purified. A general note: Immunoblotting shows a protein as a band on a membrane.

T1 sequence (E6Y8B9 26-630): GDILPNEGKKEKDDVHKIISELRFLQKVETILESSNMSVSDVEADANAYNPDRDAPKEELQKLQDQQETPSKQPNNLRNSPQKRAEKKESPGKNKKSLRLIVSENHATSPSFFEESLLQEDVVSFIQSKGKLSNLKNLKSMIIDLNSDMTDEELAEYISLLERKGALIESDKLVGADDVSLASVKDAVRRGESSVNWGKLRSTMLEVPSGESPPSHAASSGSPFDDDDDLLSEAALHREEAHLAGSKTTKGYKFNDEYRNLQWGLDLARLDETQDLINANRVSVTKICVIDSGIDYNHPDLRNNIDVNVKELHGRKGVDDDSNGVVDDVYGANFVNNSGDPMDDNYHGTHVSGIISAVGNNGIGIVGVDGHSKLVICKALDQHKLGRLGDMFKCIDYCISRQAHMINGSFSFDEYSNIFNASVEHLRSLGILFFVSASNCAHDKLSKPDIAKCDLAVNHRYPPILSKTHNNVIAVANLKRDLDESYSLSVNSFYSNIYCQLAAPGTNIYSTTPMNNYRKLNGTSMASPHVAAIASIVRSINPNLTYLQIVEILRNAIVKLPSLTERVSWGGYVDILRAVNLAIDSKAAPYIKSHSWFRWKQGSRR
Chain of rPfSUB1cat, recombinant Plasmodium falciparum SUB1 core catalytic domain (38 kDa) (Q8I0V0 333-668): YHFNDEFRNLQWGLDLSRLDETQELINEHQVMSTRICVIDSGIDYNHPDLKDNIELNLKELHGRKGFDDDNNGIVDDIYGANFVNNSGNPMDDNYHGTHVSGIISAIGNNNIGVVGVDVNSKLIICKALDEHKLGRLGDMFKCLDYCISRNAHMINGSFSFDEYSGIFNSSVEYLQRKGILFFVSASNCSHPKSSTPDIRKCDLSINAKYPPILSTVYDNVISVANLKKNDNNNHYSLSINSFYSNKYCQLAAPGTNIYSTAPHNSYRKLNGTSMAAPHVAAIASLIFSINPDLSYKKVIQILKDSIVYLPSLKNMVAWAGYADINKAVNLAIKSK

B1: mAb NIMP.M7, PfSUB1-specific monoclonal antibody (whole antibody) (antibody, V domains shown)
VH: QVQLQESGPDLVKPSSSLKLTCTTTGYSISSGYSWHWIRQEPGKSLEWMGYIHYSGSTDYNDSLKARITITRDTASNMFFLQLSSVTSDDTAVYYCVIYRYDGQWVFDDWGAGTTVTVSS
VL: DIVLTQSPATMSASLGQRVSMSCSASSSVSTSYFHWYQQKPGSSPKLWIYSTSNLASGVPGRFSGSGSGTSYSLSISSMEAEDAATYYCHQFHRSPLTFGAGTKLELK
For B1, the binding result in assay [1] and in assay [2] was “binds” each time.
